From paper doi:10.1101/192484 (bioRxiv, 2018)
Where two headings read alike, the source gives them in different places.

Assays:
SEC-MALS [1] = target: the molecule itself; assay: SEC-MALS
SEC-MALS [2] = target: the molecule itself; assay: SEC-MALS; remark: listed apart in the source

Protein	stoichiometry N (SEC-MALS [1])	stoichiometry N (SEC-MALS [2])
ATL3 22-442 WT (soluble domain: GTPase domain, linker and 3HB middle domain) (domain or fragment, human, UniProt Q6DD88 22-442, looked up) SKPGPVQVVLVQKDQHSFELDEKALASILLQDHIRDLDVVVVSVAGAFRKGKSFILDFMLRYLYSQKESGHSNWLGDPEEPLTGFSWRGGSDPETTGIQIWSEVFTVEKPGGKKVAVVLMDTQGAFDSQSTVKDCATIFALSTMTSSVQIYNLSQNIQEDDLQQLQLFTEYGRLAMDEIFQKPFQTLMFLVRDWSFPYEYSYGLQGGMAFLDKRLQVKEHQHEEIQNVRNHIHSCFSDVTCFLLPHPGLQVATSPDFDGKLKDIAGEFKEQLQALIPYVLNPSKLMEKEINGSKVTCRGLLEYFKAYIKIYQGEDLPHPKSMLQATAEANNLAAAASAKDIYYNNMEEVCGGEKPYLSPDILEEKHCEFKQLALDHFKKTKKMGGKDFSFRYQQELEEEIKELYENFCKHNGSKNVFSTFR	2	
ATL3 22-442 Y192C (domain or fragment, human, UniProt Q6DD88 22-442, looked up) SKPGPVQVVLVQKDQHSFELDEKALASILLQDHIRDLDVVVVSVAGAFRKGKSFILDFMLRYLYSQKESGHSNWLGDPEEPLTGFSWRGGSDPETTGIQIWSEVFTVEKPGGKKVAVVLMDTQGAFDSQSTVKDCATIFALSTMTSSVQIYNLSQNIQEDDLQQLQLFTECGRLAMDEIFQKPFQTLMFLVRDWSFPYEYSYGLQGGMAFLDKRLQVKEHQHEEIQNVRNHIHSCFSDVTCFLLPHPGLQVATSPDFDGKLKDIAGEFKEQLQALIPYVLNPSKLMEKEINGSKVTCRGLLEYFKAYIKIYQGEDLPHPKSMLQATAEANNLAAAASAKDIYYNNMEEVCGGEKPYLSPDILEEKHCEFKQLALDHFKKTKKMGGKDFSFRYQQELEEEIKELYENFCKHNGSKNVFSTFR	2	
ATL3 22-442 P338R (domain or fragment, human, UniProt Q6DD88 22-442, looked up) SKPGPVQVVLVQKDQHSFELDEKALASILLQDHIRDLDVVVVSVAGAFRKGKSFILDFMLRYLYSQKESGHSNWLGDPEEPLTGFSWRGGSDPETTGIQIWSEVFTVEKPGGKKVAVVLMDTQGAFDSQSTVKDCATIFALSTMTSSVQIYNLSQNIQEDDLQQLQLFTEYGRLAMDEIFQKPFQTLMFLVRDWSFPYEYSYGLQGGMAFLDKRLQVKEHQHEEIQNVRNHIHSCFSDVTCFLLPHPGLQVATSPDFDGKLKDIAGEFKEQLQALIPYVLNPSKLMEKEINGSKVTCRGLLEYFKAYIKIYQGEDLRHPKSMLQATAEANNLAAAASAKDIYYNNMEEVCGGEKPYLSPDILEEKHCEFKQLALDHFKKTKKMGGKDFSFRYQQELEEEIKELYENFCKHNGSKNVFSTFR		2
